Where a chain is given by its changes, count along the chain named. In names and notes the source's numbering stands.
B1: porcine trypsin variant S172A (SEQ ID NO: 2) (protein)
chain: IVGGYTCAANSIPYQVSLNSGSHFCGGSLINSQWVVSAAHCYKSRIQVRLGEHNIDVLEGNEQFINAAKIITHPNFNGNTLDNDIMLIKLSSPATLNSRVATVSLPRSCAAAGTECLISGWGNTKSSGSSYPSLLQCLKAPVLSDSSCKSSYPGQITGNMICVGFLEGGKDACQGDSGGPVVCNGQLQGIVSWGYGCAQKNKPGVYTKVCNYVNWIQQTIAAN
B2: trypsin variant SEQ ID NO: 113 (protein)
chain: B1 chain with F24R, S44P, D56H, R99A, R107T, K125A, K170A, W193S
B3: trypsin variant SEQ ID NO: 115 (protein)
chain: B1 chain with F24R, S44P, D56H, R99N, R107T, K125S, Y131M, W193S
B4: trypsin variant SEQ ID NO: 116 (protein)
chain: B1 chain with F24R, S44P, D56H, R99N, R107T, K125S, Y131M, K170A, W193S
B5: trypsin variant SEQ ID NO: 117 (protein)
chain: B1 chain with F24R, S44P, D56H, R99N, R107T, K125A, Y131M, W193S
B6: trypsin variant SEQ ID NO: 118 (protein)
chain: B1 chain with F24R, S44P, D56H, R99H, R107T, K125A, Y131M, K170A, W193S
B7: trypsin variant SEQ ID NO: 119 (protein)
chain: B1 chain with F24R, S44P, D56H, R99A, R107T, K125A, Y131M, W193S
B8: trypsin variant SEQ ID NO: 14 (protein)
chain: B1 chain with F24R, R99H, W193S
B9: trypsin variant SEQ ID NO: 4 (protein)
chain: B1 chain with F24R, R99A, W193S
B10: trypsin variant SEQ ID NO: 18 (protein)
chain: B1 chain with F24R, K125S, W193S
B11: trypsin variant SEQ ID NO: 19 (protein)
chain: B1 chain with F24R, K125C, W193S
B12: trypsin variant SEQ ID NO: 24 (protein)
chain: B1 chain with F24R, K170Y, W193S
B13: trypsin variant SEQ ID NO: 25 (protein)
chain: B1 chain with F24R, K170A, W193S
B14: trypsin variant SEQ ID NO: 36 (protein)
chain: B1 chain with F24R, Y131M, W193S
B15: trypsin variant SEQ ID NO: 41 (protein)
chain: B1 chain with F24R, Y131H, W193S

Chain of insulin glargine, P01308 (P01308 whole entry, looked up): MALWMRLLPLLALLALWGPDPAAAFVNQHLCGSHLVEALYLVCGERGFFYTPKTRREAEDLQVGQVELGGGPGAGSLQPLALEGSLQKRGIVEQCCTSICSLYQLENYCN

Protein	exopeptidase activity (insulin glargine, P01308)	Activity PPI cleavage (pre-pro-human insulin)	Selectivity (pre-pro-human insulin)	Purity Insulin Glargine (pre-pro-insulin glargine)	Yield (pre-pro-insulin glargine)	desArg (pre-pro-insulin glargine)	desThr (pre-pro-insulin glargine)
B1	the concentration of insulin glargine is decreased over time	yes	62.1%	53.6 area %	65%	19.1 area %	5.2 area %
B2	–	yes	>90%	86.1 area %	> 90%	0.5 area %	1.7 area %
B3	–	yes	>90%	83.5 area %	> 90%	0.8 area %	0.6 area %
B4	–	yes	>90%	82.7 area %	> 90%	0.5 area %	0.6 area %
B5	–	yes	>90%	85 area %	> 90%	0.6 area %	0.8 area %
B6	–	yes	>90%	87.6 area %	> 90%	0.6 area %	1 area %
B7	–	yes	>90%	85.2 area %	> 90%	0.6 area %	1 area %
B8	–	yes	>90%	84.5 area %	> 90%	< 0.5 area %	2.4 area %
B9	–	yes	>90%	86.4 area %	> 90%	< 0.5 area %	2.9 area %
B10	–	yes	>90%	82.6 area %	> 80%	< 0.5 area %	1.9 area %
B11	–	yes	>90%	81 area %	> 80%	< 0.5 area %	3.3 area %
B12	–	yes	>90%	82.3 area %	> 80%	< 0.5 area %	2.8 area %
B13	–	yes	>90%	80.4 area %	> 80%	< 0.5 area %	2.8 area %
B14	–	yes	>90%	87.6 area %	> 90%	< 0.5 area %	1.5 area %
B15	–	yes	>90%	82.8 area %	> 90%	< 0.5 area %	1.9 area %
